Results on seven molecules are retold here after patent US20120027722A1 (MEDICAL RESEARCH COUNCIL, published 2012).

Residue numbers refer to the chain shown, from its start. Read-outs that look alike come from different tables or passages of the source. No end group written: not given here.

The target of assay [1] is T1, E2 peptide B1 (Hepatitis C virus, genotype 2b (Table 5)). In words: peptide ELISA: biotinylated peptide on streptavidin plate, COS7 supernatant, anti-human kappa HRP, OD 655 nm.
Assay [2] has as its target T2, AP33 mimotope peptide H6.
T2 construct: captured on streptavidin plates; also called mimotope H6; H6 peptide
T2 peptide: VELRNLGGTWRPGSGK-biotin
The assay is described as above.

The target in assay [3] is T3, Peptide D3.
T3 construct: member of the group m28
The assay is described as above.

Assay [4] concerns the target T2, AP33 mimotope peptide H6. Described as above.
Assay [5] deals with T1, E2 peptide B1. The assay is described as above. This is another data set of the same source.
In assay [6] the target is T2, AP33 mimotope peptide H6. Described as above.
For assay [7], the target named is T4, E2 peptide C2 (Hepatitis C virus, genotype 1a (Table 5), not fully specified (residue 16, C-terminus)).
T4 peptide: QLINTNGSWHVNGSGK
The description is as above.

In assay [8] the target is T3, Peptide D3. The description is as above. The source holds these as a separate data set.
Assay [9] has as its target T5, HCV E1E2 heterodimer expressed on the surface of 293T cells (Hepatitis C virus (isolate )).
T5 construct: whole, on cells; also called cell surface expressed E2; E1E2 Scatchard
Put plainly: Scatchard analysis, 125I-antibody versus unlabeled antibody on E1E2-transfected 293T cells.

Assay [10] has as its target HCV E1E2 glycoproteins, genotype 1b (Con1) (Hepatitis C virus genotype 1b (Con1), UniProt Q9WMX2 192-383; Q9WMX2 384-746). In words: cell-based or functional assay.
The target of assay [11] is HCV E1E2 glycoproteins, genotype 2a (J6) (Hepatitis C virus genotype 2a (J6)). In words: cell-based or functional assay.
Assay [12] has as its target T6, soluble HCV E2 truncated at amino acid 661 (sE2661), His-tagged (Hepatitis C virus (isolate )).
T6 construct: extracellular domain; also called soluble E2
Put plainly: SPR (BIAcore A100), antibody captured on anti-human Fc chip, sE2 injected 1.56-50 nM, 1:1 Langmuir fit. A general note: Surface plasmon resonance follows binding to a sensor surface in real time, without labels.

The target of assay [13] is HCV E1E2 glycoproteins, genotype 2a isolate JFH1 (on HCVpp) (Hepatitis C virus genotype 2a (JFH1), UniProt Q99IB8 192-383; Q99IB8 384-750). In words: cell-based or functional assay.
Assay [14] deals with HCV E1E2 glycoproteins, isolate 6.5.8 (on HCVpp) (Hepatitis C virus genotype 6 (6.5.8)). Put plainly: cell-based or functional assay.
Assay [15] deals with HCV E1E2 glycoproteins, isolate 4.21.16 (on HCVpp) (Hepatitis C virus genotype 4 (4.21.16)). Put plainly: cell-based or functional assay.
Assay [16] addresses HCV E1E2 glycoproteins, isolate 1A20.8 (on HCVpp) (Hepatitis C virus genotype 1 (1A20.8)). In words: cell-based or functional assay.
Assay [17] deals with HCV E1E2 glycoproteins, genotype 3a isolate F4/2-35 (on HCVpp) (Hepatitis C virus genotype 3a (F4/2-35)). In words: cell-based or functional assay.
Assay [18] concerns the target HCV E1E2 glycoproteins, isolate 5.15.11 (on HCVpp) (Hepatitis C virus genotype 5 (5.15.11)). Put plainly: cell-based or functional assay.
In assay [19] the target is HCV E1E2 glycoproteins, isolate 2A2.4 (on HCVpp) (Hepatitis C virus genotype 2 (2A2.4)). Put plainly: cell-based or functional assay.
Assay [20] concerns the target HCV E1E2 glycoproteins, isolate 2B1.1 (on HCVpp) (Hepatitis C virus genotype 2 (2B1.1)). In words: cell-based or functional assay.
Assay [21] concerns the target HCV E1E2 glycoproteins, isolate 1B5.23 (on HCVpp) (Hepatitis C virus genotype 1 (1B5.23)). Put plainly: cell-based or functional assay.
Assay [22] concerns the target T1, E2 peptide B1. In words: peptide ELISA: biotinylated peptide on streptavidin plate, COS7 supernatant, anti-human kappa HRP, OD 655 nm. The source holds these as a separate data set. (In an ELISA, binding on a coated surface is turned into a signal by an enzyme label.)
The target of assay [23] is T2, AP33 mimotope peptide H6. The description is as above.
For assay [24], the target named is T4, E2 peptide C2. Described as above.
Assay [25] concerns the target T3, Peptide D3. Described as above. This is another data set of the same source.
The target of assay [26] is T1, E2 peptide B1. The description is as above. This is another data set of the same source.
The target of assay [27] is T2, AP33 mimotope peptide H6. Described as above.
Assay [28] deals with T4, E2 peptide C2. The description is as above.
In assay [29] the target is T3, Peptide D3. The assay is described as above. The source holds these as a separate data set.
Assay [30] addresses T1, E2 peptide B1. The description is as above. This is another data set of the same source.
Assay [31] deals with T2, AP33 mimotope peptide H6. The assay is described as above.
Assay [32] concerns the target T4, E2 peptide C2. The description is as above.
Assay [33] concerns the target T3, Peptide D3. The assay is described as above. This is another data set of the same source.
The target of assay [34] is T1, E2 peptide B1. The description is as above. The source holds these as a separate data set.
Assay [35] deals with T2, AP33 mimotope peptide H6. The assay is described as above.
The target in assay [36] is T3, Peptide D3. The description is as above. The source holds these as a separate data set.

B1: humanized AP33 antibody RHb-h/RK2bc (antibody, V domains shown)
VH: QVQLQESGPGLVKPSETLSLTCTVSGDSITSGYWNWIRQPPGRALEYMGYISYSGSTYYNLSLRSRITISRDTSKNQYSLRLSSVTAADTAMYYCALITTTTYAMDYWGQGTTVTVS
VL: EIVLTQSPSSLSASVGDRVTITCRASESVDGYGNSFLHWFQQKPGKAPKLLIYLASNLNSGVPSRFSGSGSRTDFTLTISSLQPEDFATYYCQQNNVDPWTFGQGTKLEIK
notes: also called RHbcdefgh/RK2bc
As for B1, the binding result in the assay with E2 peptide B1 [1] is recorded as “no binding (tested: about 1400 ng/ml)”. For the same molecule, the EC50 (read off the curve) (commonly the midpoint of the concentration-response curve) with AP33 mimotope peptide H6 [2] is around 40 ng/mL; with Peptide D3 [3], around 50 ng/mL; with AP33 mimotope peptide H6 [4], around 30 ng/mL.

B2: humanized AP33 antibody RH-C/RK2bc (antibody, V domains shown)
VH: QVQLQESGPGLVKPSETLSLTCTVSGDSITSGYWNWIRQPPGRALEWMGYISYSGSTYYNLSLRSRITISRDTSKNQYSLRLSSVTAADTAMYYCALITTTTYAMDYWGQGTTVTVSS
VL: B1 VL
On to B2, for which the binding result is “no binding (tested: about 2200 ng/ml)” with E2 peptide B1 [5] and “binds” with E2 peptide C2 [7]. For the same molecule, the “EC50 (read off the curve)” value in the assay with AP33 mimotope peptide H6 [6] was around 40 ng/mL; with Peptide D3 [8], around 50 ng/mL.

B3: humanized AP33 antibody RH-C/RK2b (antibody, V domains shown)
VH: B2 VH
VL: B1 VL with R72G
notes: also called RH-C antibody
For the molecule B3, the Kd (in general, the free concentration of one partner at which half of the binding sites on the other are occupied at equilibrium, for simple one-to-one binding) was 5 nM in assay [9] and 3.8 nM in [12]. The “EC50, neutralization of Con1 HCVpp entry (Huh-7.5, luciferase)” value in [10] came out at 0.511 µg/mL. In addition, the “EC50, neutralization of J6 HCVpp entry (Huh-7.5, luciferase)” value in assay [11] stood at 0.793 µg/mL. Moreover, the “neutralization of J6 HCVcc infection, fold better than AP33” value in [11] was at least 4.7 fold. Moreover, the “IC50 of HCVpp infection (Huh-7, luciferase)” value is 0.64 µg/mL in assay [13]; below 0.41 µg/mL in [14]; below 0.41 µg/mL in assay [15]; 1.6 µg/mL in [16]; below 0.41 µg/mL in [17]; 0.053 µg/mL in assay [18]. In addition, the “IC50 of HCVpp infection (Huh-7, luciferase)” value came to 0.51 µg/mL in [19], 3 µg/mL in [20] and 0.9 µg/mL in assay [21]. Also, the “IC90 of HCVpp infection (Huh-7, luciferase)” value in assay [13] amounted to 7 µg/mL; in [14] it was 1.8 µg/mL; in assay [15] it was 0.92 µg/mL; in [16] it was 15 µg/mL; in assay [17] it was 2.15 µg/mL; in [18] it was 0.82 µg/mL. For the same molecule, the “IC90 of HCVpp infection (Huh-7, luciferase)” value was 6 µg/mL in assay [19], above 15 µg/mL in assay [20] and 8.3 µg/mL in [21].

B4: RHb-h/Vl (humanized heavy chain RHb-h with chimeric light chain) (antibody, V domains shown)
VH: B1 VH
VL: NIVLTQSPVSLAVSLGQRATISCRASESVDGYGNSFLHWFQQKPGQPPKLLIYLASNLNSGVPARFSGSGSRTDFTLTIDPVEADDAATYYCQQNNVDPWTFGGGTKLEIK
notes: also called RHb-h/V1
With B4, the binding result in the assay with E2 peptide B1 [22] is “no binding (tested: about 500 ng/ml)”; with E2 peptide C2 [24] it was “binds”. The “EC50 (read off the curve)” value in the assay with AP33 mimotope peptide H6 [23] and in the assay with Peptide D3 [25] was around 20 ng/mL in each case.

B5: AP33 RH-B/RK2bc (antibody, V domains shown)
VH: B2 VH with T30S, W47Y
VL: B1 VL
notes: COS7 supernatant
On to B5, for which the binding result is listed as “no binding (tested: about 800 ng/ml)” in the assay with E2 peptide B1 [26], “binds” with AP33 mimotope peptide H6 [27], “binds” with E2 peptide C2 [28] and “binds” with Peptide D3 [29].

B6: AP33 RH-D/RK2bc (antibody, V domains shown)
VH: B1 VH with M48I
VL: B1 VL
notes: COS7 supernatant
As for B6, the binding result was “no binding (tested: about 950 ng/ml)” with E2 peptide B1 [30] and “binds” with E2 peptide C2 [32]. The “EC50 (read off the curve)” value with AP33 mimotope peptide H6 [31] and with Peptide D3 [33] was around 40 ng/mL each time.

B7: humanized AP33 antibody RH-H/RK2bc (antibody, V domains shown)
VH: B1 VH with L97R
VL: B1 VL
Take B7: the binding result in the assay with E2 peptide B1 [34] was “no binding (tested: about 1000 ng/ml)”. Moreover, the results for the “EC50 (read off the curve)” value with AP33 mimotope peptide H6 [35] and with Peptide D3 [36] were around 30 ng/mL and around 40 ng/mL, respectively.
